B1: unnamed (protein)
chain: MAKDRAGDVAAAKLNKSHLRGSPMEITQRGARILGTKCAASLGLLLLAATAAHAQSNPYAKGPDPTSSSLNASAGPFSVATSSVSSLAAVGFGSGTVYYPTTAGSYAAIAISPGFTATESSIAWLGRRVATHGFVVITINTNSTLDQPPSRATQLMAALRYLTNSSSSTVRSRIDTTRLGLAGHSMGGGGTLIAARDNPSLKAAVPLTAWSVTKSFSTMRVPTLVVGAENDSIASVSSHSIPFYNSLPSSLSKAYAELNGASHFAPNTTNTPIGRYTVAWVKRFMDNDTRYSPFLCGSPHDSYATGLVFSDYRDNCPY
B2: unnamed (protein)
chain: MDPSLKRALGLVVALTAAMLFSASASAQNPPPDDDPEPCQTDCDDGGNGGYTRGPDPTDSYLEASSGPYNVATSNVSSFVSGFGGGTIHYPTNTSGSMGGIVVIPGYVSYESSIEWWGPRLASHGFVVMTIDTNSIYDQPGSRKDQIDAALDYLVGQSNASSSAISGMVDGDRLAAVGWSMGGGGTLQLAAEPGRLKAAMPLAPWNSSFNDFDQIQTPTLIFACESDAVAPVSSHASPFYNDIPDATDKAFFEMNNGSHTCANGGNAYDELLGKYGVSWMKLHLDEDQRYEQFLCGPNHESEYQVS
B3: unnamed (protein)
chain: MRACCAFNSTIPGDTMSLQLTKHFGLAALACAALMSLGAAAHAQSYQKGPNPTASALERAGPFATRTTDVSRYSVTNFGGGTIYYPTAAGQYGAIAVSPGYTASKSTVTFWGERLSSHGFVVIVIDTLTTLDQPASRARQLKAALDKVVSLSRSSSSPIYNKVDPNRLAVMGHSMGGGGTLQAAKDNPGLKAAIPMAPWNTVTNWSAVTVPTLVMACQADAIAPVANHAVPFYNSMSANKKSYIEMAGDDHLCVMNGGGHDATLGKMGIAWMKRFVDNDTRYSPFLCGLPYQATVNTSEVSVHRNNCPY
B4: unnamed (protein)
chain: MFGKFPFARAGLAVGALLLSAAAVAQTNPYQRGPDPTVASLEATRGSFATSSFTVSRPSGYGAGTVYYPTNAGGKVGAIAVVPGFTARQSSINWWGARLASHGFVVITIDTNSTLDQPSSRSSQQMAALRQVVTLAGTTSSPIYNKVDTARLGVMGWSMGGGGSLISAKNNPTLRAAAPQAPWAQESFSTVTVPTLIISCESDTIAPNNTHSFPFYNQMTRNKKANLVINGGSHSCANSGNADAGLIGKYGVAWMKRFMDDDTRFSKFLCGAEHTADLSKRAIEAYKENCPY
B5: unnamed (protein)
chain: MKTSRTRTATTTLTRLARLALAAAALLLSAAAQAQSSNPYQRGPDPTAASLEASAGPFAVSTTTVSSASGFGGGTIYYPTNTEGPFAAIAVVPGFTATQSSISWWGPRLASHGFVVITIDTNSTFDQPASRATQLMAALNYVVSLSNTSSSPIYGKVDSNRLGVMGHSMGGGGTLIAARDNPTLKAAIPLAPWNSSTNFSSVTVPTLIIACENDTVAPVSSHASPFYNSIPSSTDKAYLEINGGDHFCANSGNSNKAILGKYGVAWMKRFLDNDTRYSPFLCGAPHQADLSGSAISEYRDNCPY
B6: unnamed (protein)
chain: MERKNSRRSWAIGLGLLVLAATSAHAQTNPYQKGPDPTSASLNATSGSFSVATSSVSSAVSGFGGGTIYYPTTTGTYAVLAISPGFTATQSSIAWLGRRIATHGFVVITIDTNSTLDQPPSRATQLMAALNYVTNSSSATVRAKVDASRRGVAGHSMGGGGTLYAARDNPSLKAAVPLTAWSTLKSFSSVQVPTLVVGAESDSIAPVSSHSIPFYNSLSGSLDKAYAELNGASHLAPNSTNTPIGRYSVAWVKRFMDNDTRYTPFLCGTPHT
B7: unnamed (protein)
chain: MKFQRFLQATVLAGATLLSFGAAAIEIGPAPTKASLEASRGPFSVGQFTVSRPSGYGAGTVYYPTNAGAKVGAIAIVPGFVSYQSSIAWWGPRLASHGFVVITIDTNTTVDQPDSRSRQQLAALDQVIALSKTSSSPIYNKVDENRTGVMGWSMGGGGSLISAKNRPSIKAAAPQAPWNSSTNFSSVTVPTLIFACQSDIVAPVAQHASPFYNSITRAPKQYLEKTLGDHFCFNSANATVGLKGVAWMKRFIDGDTRYTSFACSNPNALGFSDFRTARCS
B8: unnamed (protein)
chain: MPTPNTRPTPFGRLLQVTLAVSALALSLGAQAQQTGADPTTAILEAPAGPLAVSNVKVATPSGFGSGTVYYPTTGKGPYGLVSVTPGFVEGEWAINWLGPLLASHGFVVVTIGTTTILDAPTSRAKQMMAALKQVTALSATKTSPFAGKVDPSRLAVMGHSMGGGGSLDAARDNPNLKAAIPLAPWETTKDYSKITVPTLIVSCDSDVIAPVADHANKFYDSLTPTLTKALVEMKGAGHFCTNGTAIPATRTLVGKYSISWLKRFVDGDTRYSPFLCGAPHQADLAGSLISTYKGNCPY
B9: unnamed (protein)
chain: MIMKNIDRRLRHCAVGLGLLLLAAVAQAQTNPLAKGPDPTSDLLNATAGPFAVATTSVSSSVSGFGGGTVYYPTASGSYATVAVCPGFTATQSSIAWIGRRMASHGFVVMTINTNSTLDQPPSRATQLMAALRYLTNSSNSTVRARVDANRLGVAGHSMGGGGTLMAARDNPTLKAAVPMTPWSQTKSFSTVRVPTLIVGAENDSVAPVASHSIPFYTSLSGSLDKAYAELNNASHFAPNSTNTPIGRYSVAWVKRFMDNDTRY
B10: unnamed (protein)
chain: MRKISFKASLFSTLTLLASSITYAGGGGGNGGNNNGGLPAPDTCEVNCGYNQGSNPSLNSLQSTRGNFSVATSNVPRSVPGFGGGTIYYPRNTSGELATIAIAPGFTAPQDAISWWGPVLASNGFVVITIDTNSRLDQPISRGRQLDSALSYLISQGNSSNSPISGMVDENRLASMGHSMGGGGALRSASRNRLSAAIPLAPFNVGGNSFNDIEVPTMIMACENDGTAPVNIHASPFYNRIPSSTDKALIELDNGNHSCANGGSGRNNAVLATYGVSWMKRFLDKDQRFIPFLCGPNHEANRGISDYRD
B11: unnamed (protein)
chain: MRSAKTSVLAAVALGAAALLALGACGGSNNPYIRGDDPTEESLSRPGPYAVKSLTEGDRNGPGYGGGTIYYPTDAEPPFAAVAIVPGFTSPQSSIASWGPFLASHGIVAMTIDTNSTFDQPDTRAAALLDALESIKGENTRAGSPLKGKLDTNRLGVMGWSMGGGGTLIAAKDNPELKAAISLCPWNPGSSYSNTKVPTLMIASQADPLAGVSGHSQPFYDSIPDSTPKMLFEVAGGDHFVANNPANGNGQVGRYGLSWLKRFLEGDERYRPFLLEKPPGASDYRTNVY
B12: unnamed (protein)
chain: MNSRRASRLARAALAAGALLLSAAALATSNPYQRGPDPTAASLEASRGPFAVSSFTVSRPSGFGAGTVYYPTNAGGTVGAIAVVPGFTARQSSINWWGPRLASHGFVVITIDTNSTSDQPASRATQLMAALRQVVTLSGTSSSPIYNKVDTSRLGVMGWSMGGGGTLIAARNNPTLKAAVPLAPWNSSTNFSSVTVPTLIIACENDTVAPVSSHASPFYNSMTRTEKAYLEINGGSHSCANSGNSNQALLGKYGVAWMKRFMDNDTRYSSFLCGAPHSADLSSKSAISEYRENCPY
B13: unnamed (protein)
chain: MIEIRSSYKSKKTNCKRSVMPSMITKKAALPFVISSALLFSASAFAITPPSDPDPDPTPCEGDCDFTRGPDPTESMLEARSGPFNVDTVNVSSRVSGFGGGTIHYPTNTSGQMGAIVVAPGFVSPESSIGWWGPQLASHGFIVMTIATNSLYDQPDSRRDQLEAGLDYLISQSNSSGSDISGMVDSSRLGAMGWSMGGGGALQLAADGRLSAAIPLAPYNSSRNDFDDITTPTLIFACENDAVAAVRSHASPFYNDIPGSTDKAFVEINGGAHSCANGGNTNNSLLSKYGVSWMKLHLDQDQRYSQFLCGPNHESDRSISEYRGTCPY
B14: unnamed (protein)
chain: MEISKKKCLIGLGLMAMAMGVQAQTNPLAKGPDPTNASIQANGPFAVTTVTISNANANGYGGATVYVPTAAGTYALVAFSPGFTARQDTIAVIGRRLATHGFVVATIDTNSTLDLPDSRGTQLLAALRSVAALNAGNTAAAGKIDTTRLVVTGHSMGGGGTLFASRTNTAIKAGVPIAPFSSGVKNFATPVPQFILGGEVDNVAPVDEHSIPFFNGLPNATPKVYAELNGEDHFFVSESTPNQPASKFQIAWIKRFADNDARYTQFVNSAGVAVERNNGRLSDGRLESF
B15: unnamed (protein)
chain: MQHSPSTSRTRQRVTGILASLAVAVGVGIAAGPAAQGADNPHERGPDPTESSIEASRGSYSISERNVSSLVSGFGGGTIYYPTTTRDGDFGAVVISPGYTGTERTISWLGPRLASQGFVVLTMATNSIYDQPDSRARQLQAALDYLTDSSPVADRIDADRLALMGHSMGGGGTLRAVDDNPDIKAAIPMTPWHVKKNWSSVSTPTLIFGAENDSVARHETHAEPFYESFDRDLQKAYLELDGASHFAPNSSNTTIAKYSISWLKRFVDDDTRYTQFLCPGPSTGWFSDVEKYESSCPF

substrate: BHET; conditions: 120 h

**Q.** For B1, which plate clearing is on record?
**A.** Its plate clearing is “not clears the plate”.

**Q.** How did the plate clearing turn out when B2 was run?
**A.** The plate clearing was “not clears the plate”.

**Q.** With B3 as the protein, how does the plate clearing read?
**A.** Its plate clearing is “clears the plate (z > 3 vs empty vector)”.

**Q.** With B4 as the protein, how does the plate clearing read?
**A.** Its plate clearing is “not clears the plate”.

**Q.** How did the plate clearing turn out when B5 was run?
**A.** Its plate clearing is “clears the plate (z > 3 vs empty vector)”.

**Q.** For B6, which plate clearing is on record?
**A.** Its plate clearing is “not clears the plate”.

**Q.** How did the plate clearing turn out when B7 was run?
**A.** Its plate clearing is “not clears the plate”.

**Q.** Which plate clearing does the source give for B8 here?
**A.** Its plate clearing is “not clears the plate”.

**Q.** For B9, which plate clearing is on record?
**A.** Its plate clearing is “not clears the plate”.

**Q.** For B10, which plate clearing is on record?
**A.** The plate clearing was “not clears the plate”.

**Q.** With B11 as the protein, how does the plate clearing read?
**A.** Its plate clearing is “not clears the plate”.

**Q.** How did the plate clearing turn out when B12 was run?
**A.** The plate clearing was “clears the plate (z > 3 vs empty vector)”.

**Q.** With B13 as the protein, how does the plate clearing read?
**A.** Its plate clearing is “not clears the plate”.

**Q.** B14 was tested. Which plate clearing did it give?
**A.** The plate clearing was “not clears the plate”.

**Q.** With B15 as the protein, how does the plate clearing read?
**A.** The plate clearing was “not clears the plate”.

— the PETadex activity labels
